B1: Low-density lipoprotein receptor-related protein 8 (Homo sapiens), Q14114 (parent)
chain: MGLPEPGPLRLLALLLLLLLLLLLQLQHLAAAAADPLLGGQGPAKDCEKDQFQCRNERCIPSVWRCDEDDDCLDHSDEDDCPKKTCADSDFTCDNGHCIHERWKCDGEEECPDGSDESEATCTKQVCPAEKLSCGPTSHKCVPASWRCDGEKDCEGGADEAGCATLCAPHEFQCGNRSCLAAVFVCDGDDDCGDGSDERGCADPACGPREFRCGGDGGGACIPERWVCDRQFDCEDRSDEAAELCGRPGPGATSAPAACATASQFACRSGECVHLGWRCDGDRDCKDKSDEADCPLGTCRGDEFQCGDGTCVLAIKHCNQEQDCPDGSDEAGCLQGLNECLHNNGGCSHICTDLKIGFECTCPAGFQLLDQKTCGDIDECKDPDACSQICVNYKGYFKCECYPGYEMDLLTKNCKAAAGKSPSLIFTNRHEVRRIDLVKRNYSRLIPMLKNVVALDVEVATNRIYWCDLSYRKIYSAYMDKASDPKEQEVLIDEQLHSPEGLAVDWVHKHIYWTDSGNKTISVATVDGGRRRTLFSRNLSEPRAIAVDPLRGFMYWSDWGDQAKIEKSGLNGVDRQTLVSDNIEWPNGITLDLLSQRLYWVDSKLHQLSSIDFSGGNRKTLISSTDFLSHPFGIAVFEDKVFWTDLENEAIFSANRLNGLEISILAENLNNPHDIVIFHELKQPRAPDACELSVQPNGGCEYLCLPAPQISSHSPKYTCACPDTMWLGPDMKRCYRAPQSTSTTTLASTMTRTVPATTRAPGTTVHRSTYQNHSTETPSLTAAVPSSVSVPRAPSISPSTLSPATSNHSQHYANEDSKMGSTVTAAVIGIIVPIVVIALLCMSGYLIWRNWKRKNTKSMNFDNPVYRKTTEEEDEDELHIGRTAQIGHVYPAAISSFDRPLWAEPCLGETREPEDPAPALKELFVLPGEPRSQLHQLPKNPLSELPVVKSKRVALSLEDDGLP

Variants of: B1
Conditions: with reln_mouse Reln

Variant | effect of a mutation on the interaction
D69N | disrupting interaction
V63A | decreasing interaction
P61A | disrupting interaction
W64H | disrupting interaction
D50A | decreasing interaction

Reference: IntAct's records for PubMed 20223215
